This is an account of results in patent publication US20120283168A1.

Square brackets hold non-standard residues; d marks the D form. Oic = O=C(O)[C@@H]1C[C@@H]2CCCC[C@@H]2N1; Tic = O=C(O)[C@@H]1Cc2ccccc2CN1; Dab = NCC[C@H](N)C(=O)O; Ac4c = NC1(C(=O)O)CCC1; Deg = CCC(N)(CC)C(=O)O; Aib = CC(C)(N)C(=O)O

The target in this experiment is human CCR10 (human) (UniProt P46092). The experiment can be described thus: cell-based or functional assay.
human CCR10 (human), sequence (P46092 whole entry): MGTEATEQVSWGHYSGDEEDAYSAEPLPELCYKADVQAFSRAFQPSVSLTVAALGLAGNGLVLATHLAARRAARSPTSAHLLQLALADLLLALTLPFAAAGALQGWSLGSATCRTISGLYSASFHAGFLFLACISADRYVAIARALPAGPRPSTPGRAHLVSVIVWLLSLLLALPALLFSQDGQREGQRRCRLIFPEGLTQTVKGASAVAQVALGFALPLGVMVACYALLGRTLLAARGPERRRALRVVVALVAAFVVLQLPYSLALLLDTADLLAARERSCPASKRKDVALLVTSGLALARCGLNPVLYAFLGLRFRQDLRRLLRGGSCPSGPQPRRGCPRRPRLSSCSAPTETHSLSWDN
In the case of “cyclo(-Trp-Cyp-Trp-Dap((MeO(CH2)2)2)-^DPro-Oic-) (peptide)”, the IC50 (nM) Calcium Flux Assay is 399 nM and the IC50 (nM) Chemotaxis Assay was found to be 15.2 nM.
As for “cyclo(-Trp-Cyp-Trp-Dap(CONH2)-^DPro-Oic-) (peptide)”, the IC50 (nM) Calcium Flux Assay amounted to 20 nM and the IC50 (nM) Chemotaxis Assay was found to be 4.7 nM.
As for “cyclo(-Trp-Cyp-Trp-Dap(MeO(CH2)2)-^DPro-Oic-) (peptide)”, the IC50 (nM) Calcium Flux Assay came out at 56.8 nM and the IC50 (nM) Chemotaxis Assay came out at 6.9 nM.
On to “cyclo(-Trp-Cyp-Trp-Dap-^DPro-Oic-) (peptide)”, for which the IC50 (nM) Calcium Flux Assay is 52.7 nM.
“cyclo(-Trp-Cyp-Trp-Gln(iPr)-^DPro-Oic-) (peptide)”: the IC50 (nM) Calcium Flux Assay amounted to 25.1 nM and the IC50 (nM) Chemotaxis Assay came out at 1 nM.
Regarding “cyclo(-Trp-Cyp-Trp-Gln-^DPro-Oic-) (peptide)”, the IC50 (nM) Calcium Flux Assay came to 44.3 nM.
In the case of “cyclo(-Trp-Cyp-Trp-Lys(4Oxa)-^DPro-Oic-) (peptide)”, the IC50 (nM) Calcium Flux Assay was 107 nM and the IC50 (nM) Chemotaxis Assay turned out to be 5.9 nM.
With “cyclo(-Trp-Cyp-Trp-Lys((5R)OH)-^DPro-Oic-) (peptide)”, the IC50 (nM) Calcium Flux Assay was 333 nM and the IC50 (nM) Chemotaxis Assay came to 7 nM.
Taken in the same sequence, the figures for “cyclo(-Trp-Cyp-Trp-Lys(Ac)-^DPro-Oic-) (peptide)” were 28 nM and 2.3 nM.
In the case of “cyclo(-Trp-Cyp-Trp-Lys(Bz)-^DPro-Oic-) (peptide)”, the IC50 (nM) Calcium Flux Assay amounted to 3 nM and the IC50 (nM) Chemotaxis Assay worked out at 2.7 nM.
Substance “cyclo(-Trp-Cyp-Trp-Lys(Me)-^DPro-Oic-) (peptide)” showed an IC50 (nM) Chemotaxis Assay of 4.4 nM.
Regarding “cyclo(-Trp-Cyp-Trp-Lys(Nic)-^DPro-Oic-) (peptide)”, the IC50 (nM) Calcium Flux Assay worked out at 49.5 nM and the IC50 (nM) Chemotaxis Assay was 8.8 nM.
Taken in the same sequence, the figures for “cyclo(-Trp-Cyp-Trp-Met(O2)-^DPro-Oic-) (peptide)” were 4.8 nM and 1.2 nM.
In the case of “cyclo(-Trp-Cyp-Trp-Ser(Me)-^DPro-Oic-) (peptide)”, the IC50 (nM) Calcium Flux Assay amounted to 46.4 nM and the IC50 (nM) Chemotaxis Assay turned out to be 10.1 nM.
Turning to “cyclo(-Trp-Cyp-Trp-Ser-^DPip-Oic-) (peptide)”, the IC50 (nM) Calcium Flux Assay was 6.9 nM and the IC50 (nM) Chemotaxis Assay was determined as 9.6 nM.
Taken in the same sequence, the figures for “cyclo(-Trp-Cyp-Trp-Ser-^DPro-Hyp(Bn)-) (peptide)” were 12.6 nM and 35.4 nM.
Taken in the same sequence, the figures for “cyclo(-Trp-Cyp-Trp-Ser-^DPro-Oic-) (peptide)” were 61.6 nM and 1.4 nM.
Taken in the same sequence, the figures for “cyclo(-Trp-Cyp-Trp-Thr-^DPro-Oic-) (peptide)” were 20.4 nM and 5.4 nM.
With “cyclo(-Trp-Cyp-Trp-alloThr-^DPro-Oic-) (peptide)”, the IC50 (nM) Calcium Flux Assay was found to be 11.6 nM and the IC50 (nM) Chemotaxis Assay is 1.2 nM.
Taken in the same sequence, the figures for “cyclo(-Trp-Cyp-Trp-hArg-^DPro-Oic-) (peptide)” were 25 nM and 3.7 nM.
The matching figures for “cyclo(-Trp-Cyp-Trp-hCys-^DPro-Oic-) (peptide)”: 54.9 nM and 8.7 nM.
In the case of “cyclo(-Trp-Cyp-Trp-hSer(Me)-^DPro-Oic-) (peptide)”, the IC50 (nM) Calcium Flux Assay came out at 12 nM and the IC50 (nM) Chemotaxis Assay amounted to 1.8 nM.
Taken in the same sequence, the figures for “cyclo(-Trp-Cyp-Tyr(Me)-Dab-^DPro-Oic-) (peptide)” were 214 nM and 3.8 nM.
Taken in the same sequence, the figures for “cyclo(-Trp-Cyp-Tyr(Ph)-Dab-^DPro-Oic-) (peptide)” were 602 nM and 208 nM.
With “cyclo(-Trp-^DLAtc-Trp-Dab-^DPro-Oic-) (peptide)”, the IC50 (nM) Calcium Flux Assay was 608 nM.
As to “cyclo(-Tyr(4MeOCOBn)-Cyp-Trp-Dab-^DPro-Oic-) (peptide)”, the IC50 (nM) Calcium Flux Assay came to 16.7 nM and the IC50 (nM) Chemotaxis Assay was 2.3 nM.
For “cyclo(-Tyr(40HPh)-Cyp-Trp-Dab-^DPro-Oic-) (peptide)”, the IC50 (nM) Calcium Flux Assay was found to be 48.9 nM and the IC50 (nM) Chemotaxis Assay amounted to 6.6 nM.
The matching figures for “cyclo(-Tyr(Ph)-Cyp-Trp-Dab-^DPro-Oic-) (peptide)”: 1.1 nM and 1.7 nM.
The matching figures for “cyclo(-hTyr-Cyp-Trp-Dab-^DPro-Oic-) (peptide)”: 516 nM and 13 nM.
On to cyclo(W[Ac4c]W[Dab][dP][Oic]), for which the IC50 (nM) Calcium Flux Assay turned out to be 353 nM and the IC50 (nM) Chemotaxis Assay turned out to be 1.7 nM.
The matching figures for cyclo(W[Aib]WR[dP][Tic]): 226 nM and 94 nM.
cyclo(W[Aib]W[Dab][dP][Tic]): the IC50 (nM) Calcium Flux Assay turned out to be 200 nM and the IC50 (nM) Chemotaxis Assay came out at 21.6 nM.
For the substance cyclo(W[Deg]W[Dab][dP][Oic]), the IC50 (nM) Calcium Flux Assay came to 146 nM and the IC50 (nM) Chemotaxis Assay turned out to be 76.1 nM.
